Square brackets hold non-standard residues; d marks the D form. Ends that are not written are not given here. Peptide text beside a SMILES is read from it. hSer = N[C@@H](CCO)C(=O)O
Key:
in vitro = conditions: male, Hartley, guinea pig, pH 7.8
Description: First, male Hartley guinea pigs (weight: 350-380 g) were anesthetized by intraperitoneally administering urethane. Next, the respiratory tract of each animal was exposed by cutting its neck and 4 ml of physiological saline was slowly injected into the respiratory tract. Then, the injected solution was recovered from the respiratory tract, which is referred to as the broncho-alveolar lavage wash.
1, 2, 3 and 4 hours after the initiation of the incubation, the reaction mixture was collected and the residual concentration of the (SEQ ID NO: 3)-n-hexylamide or the natural type VIP was measure under the following HPLC conditions to thereby determine the half-life thereof.
Column: μ-BONDASPHERE C-18 column (manufactured Waters Co., 3.9 mm×150 mm)
Eluent: eluted with 0.012N hydrochloric containing acetonitrile at a linear gradient concentration from 15 to 25%, for 20 min

enkephalinase = enkephalinase (Homo sapiens, UniProt P08473); conditions: incubated with enkephalinase, within 15 minutes; cited from earlier work
[1] = broncho-alveolar lavage wash from guinea pig at 37° C.; cited from earlier work
[2] = Measurement of elution time in reversed phase HPLC (correlates to hydrophobicity); type: physicochemical; conditions: reversed phase C-18 column, 40° C., 0.012N hydrochloric acid with 15, 25 and 50% acetonitrile, 50 minutes, 0.8 ml/min
Description: (Measurement of elution time in reversed phase HPLC)
It is well known that the elution time in HPLC with the use of a reversed phase column correlates to the hydrophobicity of a compound (cf. J. Med. Chem., vol. 18, pp. 549-552 (1975) and J. Pharm. Sci., vol. 66, pp. 747-749 (1977)). Thus, the elution time of each of the VIP analog derivatives obtained in the above Reference Production Example and production Examples was measured under the HPLC conditions as specified below. As a control, natural VIP having a human type amino acid sequence (purchased from Peptide Institute, INC.) was employed.
Column: μ-BONDASPHERE C-18 column (manufactured by Millipore Corporation, 3.9 mm×150 mm)
Eluent: eluted with 0.012N hydrochloric containing 15, 25 and 50% of acetonitrile in this order, for 50 minutes
Detection wavelength: 210 nm

[3] = system: histamine-induced bronchoconstriction; assay: Duration of bronchoconstriction suppressing activity (Konzett-Rossler method); type: in vivo; conditions: male guinea pig, drug dropped directly into the respiratory tract, 5 μg/kg histamine intravenously
Description: (Duration of bronchoconstriction suppressing activity)
The inhibitory activity of the VIP analog derivatives, obtained in the Production Examples above, on histamine-induced bronchoconstriction was evaluated on test samples in accordance with a Konzett-Rossler method. Natural type VIP was used as a control.
First, a male guinea pig was fixed under urethane-anesthesia. After cutting the neck of the animal, a canula drug line was inserted into its jugular vein while a canula connected to a Konzett-Rossler device was inserted into its respiratory tract. After dropping a test drug directly into the respiratory tract, the head of the animal was held up for 1 minute to allow the drug to reach the lungs. Subsequently, 5 μg/kg of histamine was intravenously administered to the animal and the bronchoconstriction was measured over time. One minute before the administration of histamine, succinylcholine chloride was intravenously administered to the animal to thereby suppress spontaneous respiration during the experiment. Evaluation was made in the following manner. Before the administration of the test drug, the intensity of bronchoconstriction induced by histamine was measured. Then, after the administration of the test drug, the time required for reducing by 50% the suppression of bronchoconstriction induced by the same dose of histamine as measured above was defined as t50. The t50 of each test drug was determined.

Sequence of enkephalinase (P08473 whole entry, species assumed): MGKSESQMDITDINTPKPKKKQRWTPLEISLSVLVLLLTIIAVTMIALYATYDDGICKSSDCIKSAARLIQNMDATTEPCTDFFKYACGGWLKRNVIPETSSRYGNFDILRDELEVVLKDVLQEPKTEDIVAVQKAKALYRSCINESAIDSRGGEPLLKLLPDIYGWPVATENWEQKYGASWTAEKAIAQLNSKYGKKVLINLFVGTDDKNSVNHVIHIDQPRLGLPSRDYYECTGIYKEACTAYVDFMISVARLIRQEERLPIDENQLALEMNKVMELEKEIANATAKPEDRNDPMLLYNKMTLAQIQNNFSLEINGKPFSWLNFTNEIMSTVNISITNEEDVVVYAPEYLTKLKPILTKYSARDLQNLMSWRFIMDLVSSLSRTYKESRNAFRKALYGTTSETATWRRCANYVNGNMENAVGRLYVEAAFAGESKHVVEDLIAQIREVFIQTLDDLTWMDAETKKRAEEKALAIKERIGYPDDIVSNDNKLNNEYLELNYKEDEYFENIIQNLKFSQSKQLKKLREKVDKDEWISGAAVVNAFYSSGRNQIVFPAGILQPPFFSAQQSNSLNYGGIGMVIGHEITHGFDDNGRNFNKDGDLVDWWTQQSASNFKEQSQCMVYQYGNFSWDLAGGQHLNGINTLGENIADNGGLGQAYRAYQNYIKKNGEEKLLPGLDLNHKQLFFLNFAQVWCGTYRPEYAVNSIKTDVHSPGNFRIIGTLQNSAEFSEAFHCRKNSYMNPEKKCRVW

Compound | Retention time [2] [min] | t50 [3] [min] | further results
CCCCCCNC(=O)[C@H](CCO)NC(=O)[C@H](CCCCN)NC(=O)[C@H](CC(C)C)NC(=O)[C@H](C)NC(=O)[C@H](CCCCN)NC(=O)[C@H](CC(N)=O)NC(=O)[C@H](CC(C)C)NC(=O)[C@H](Cc1ccc(O)cc1)NC(=O)[C@H](CCCCN)NC(=O)[C@H](CCCCN)NC(=O)[C@H](C)NC(=O)[C@H](C)NC(=O)[C@H](CC(C)C)NC(=O)[C@H](CCC(N)=O)NC(=O)[C@H](CCCCN)NC(=O)[C@H](CCCNC(=N)N)NC(=O)[C@H](CC(C)C)NC(=O)[C@H](CCCCN)NC(=O)[C@@H](NC(=O)[C@H](Cc1ccc(O)cc1)NC(=O)[C@H](CC(N)=O)NC(=O)CNC(=O)[C@@H](NC(=O)[C@H](Cc1ccccc1)NC(=O)[C@@H](NC(=O)[C@H](C)NC(=O)[C@H](CC(=O)O)NC(=O)[C@H](CO)NC(=O)[C@@H](N)Cc1c[nH]cn1)C(C)C)[C@@H](C)O)[C@@H](C)O [Production Example 2, VIP analog-n-hexylamide derivative] (HELM PEPTIDE1{H.S.D.A.V.F.T.G.N.Y.T.K.L.R.K.Q.L.A.A.K.K.Y.L.N.K.A.L.K.[O=C([C@H](CCO)N[*:1])[*:2]].[CCCCCCN[*:1]]}$$$$V2.0) |  |  | half-life at 330 μg/ml (in vitro; broncho-alveolar lavage wash): 4.9 h
CC[C@H](C)[C@H](NC(=O)[C@H](CO)NC(=O)[C@H](CC(N)=O)NC(=O)[C@H](CC(C)C)NC(=O)[C@H](Cc1ccc(O)cc1)NC(=O)[C@H](CCCCN)NC(=O)[C@H](CCCCN)NC(=O)[C@@H](NC(=O)[C@H](C)NC(=O)[C@H](CCSC)NC(=O)[C@H](CCC(N)=O)NC(=O)[C@H](CCCCN)NC(=O)[C@H](CCCN=C(N)N)NC(=O)[C@H](CC(C)C)NC(=O)[C@H](CCCN=C(N)N)NC(=O)[C@@H](NC(=O)[C@H](Cc1ccc(O)cc1)NC(=O)[C@H](CC(N)=O)NC(=O)[C@H](CC(=O)O)NC(=O)[C@@H](NC(=O)[C@H](Cc1ccccc1)NC(=O)[C@@H](NC(=O)[C@H](C)NC(=O)[C@H](CC(=O)O)NC(=O)[C@H](CO)NC(=O)[C@@H](N)Cc1c[nH]cn1)C(C)C)[C@@H](C)O)[C@@H](C)O)C(C)C)C(=O)N[C@@H](CC(C)C)C(=O)N[C@@H](CC(N)=O)C(N)=O [VIP, vasoactive intestinal polypeptide] |  |  | half-life at 330 μg/ml (in vitro; cerebrospinal or other body fluid): 1.2 h; VIP degraded (enkephalinase): more than 70%; half-life [1]: about 1.5 hours
Reference Production Example: basic VIP analog of SEQ ID NO: 3 disclosed in JP-A-6-220090 / EP-A-0,613,904, starting material of the derivatives (HSDAVFTGNYTKLRKQLAAKKYLNKALK[hSer]; ends and bridges not checked) [reference compound] | 13.8 | 26 | 
VIP analog-dihexylamide derivative (HSDAVFTGNYTKLRKQLAAKKYLNKALK[hSer]-dihexylamide) [Production Example 6] | 41.4 |  | 
VIP analog-ethylenediaminemonoamide derivative (HSDAVFTGNYTKLRKQLAAKKYLNKALK[hSer]-{ethylenediamine monoamide}) [Production Example 8] | 12.1 |  | 
VIP analog-laurylamide derivative (HSDAVFTGNYTKLRKQLAAKKYLNKALK[hSer]-laurylamide) [Production Example 3] | 40.0 | 61 | 
VIP analog-n-propylamide derivative (HSDAVFTGNYTKLRKQLAAKKYLNKALK[hSer]-{n‑propylamide}) [Production Example 1] | 18.0 |  | 
VIP analog-oleylamide derivative (HSDAVFTGNYTKLRKQLAAKKYLNKALK[hSer]-oleylamide) [Production Example 5] | 48.3 |  | 
VIP analog-stearylamide derivative (HSDAVFTGNYTKLRKQLAAKKYLNKALK[hSer]-stearylamide) [Production Example 4] | 46.8 |  | 
VIP analog-triethylenetetraminemonoamide derivative (HSDAVFTGNYTKLRKQLAAKKYLNKALK[hSer]-{triethylenetetramine monoamide}) [Production Example 7] | 10.9 | 58 | 

Source: patent publication US5521157A, “Modified polypeptide compound with VIP-like activity” (Sanwa Kagaku Kenkyusho Co., Ltd., priority 1993, dated 1996)
